The text below walks through data of PMC8056888 (Journal of Applied Glycoscience, 2017).

The subject of one data set is Foagl1. The following applies: conditions not stated for this substrate.
Substrate in data set [1]: O=[N+]([O-])c1ccc(O[C@H]2O[C@H](CO)[C@@H](O)[C@H](O)[C@H]2O)cc1
Nature of the data set: purified protein. The following applies: pH 6.0, sodium phosphate, 30 °C.

Substrate in data set [2]: CO[C@H]1O[C@H](CO)[C@@H](O)[C@H](O)[C@H]1O
Nature of the data set: purified protein. The following applies: conditions not stated for this substrate.

As usually defined, the Km is the substrate concentration at which the rate is half of its maximum. Take `CO[C@H]1O[C@H](CO)[C@@H](O)[C@H](O)[C@H]1O` [α-MG]: the Km with Foagl1 worked out at 24.3 mM.

B1: Agl1 (Aspergillus oryzae RIB40) (protein)
chain: MATPGNQNHRAWWKESSVYQIWPCSFKDSNDDGIGDIPGIISKLDHIKNLGIDIVWLCPSYKSPQVDMGYDIADYYDIAPEYGTVADVEKLIKGCHERGMKLLMDLVVNHTSDQHEWFKQSRSSKDNEYRNWYIWKPARYDEQGNRQPPNNWVSHFQGSAWEWDEHTQEYYLHLYATEQPDLNWEHPPVRKAVHDIMRFWLDKGANGFRMDVINFISKDQRFPDAPIKDPRTPWQWGDKYYANGPRLHEYFQELGKILKEYDTFSVGEMPFVTDTEEVLRAVKYDRNELNMIFNFEHVDIDHGKYDKFEPGSWELTDLKFFFERWQKFMYENDGWNALYWENHDQPRSVDRYTNAKEEDRVIASKMLATILALKAGSPFVYQGQEIGMGNVPPEWDIEEYKDIDCLNHWKRLPNDPEIQKIARQEYQKKSRDNGRTPVQWTNAPNAGFTSPNVKPWMSVNPNYARGINAEAQVNDPNSTYSYWASVLGLRKKYVDIFVYGNYELVDRDSQEIFAYTRQYEDQKALVLANWTDGTLEWDSSSNGVKAVKDVLLNTYDSASDVKERFSGSKWSLRPYEAVVLLIEA
One may read the kcat as the number of substrate molecules converted per active site and unit of time at saturation. A word on the kcat/Km: it is the second-order rate constant that governs catalysis at low substrate concentration. On to B1, for which, in “purified protein [1]”, the Michaelis-Menten constant (Km) stood at 8.3 mM, the catalytic constant (kcat) worked out at 17.5 s⁻¹ and the catalytic efficiency (kcat/Km) was found to be 2120 M⁻¹ s⁻¹. Further, in the data set “purified protein [2]”, the Km amounted to 31.3 mM.

B2: AgdC (Aspergillus niger CBS 513.88) (protein)
chain: MAKSASQIHRAWWKECSVYQIWPASYKDSNDDGIGDIPGIISKLDYIKNIGVDIVWLCPSYKSPQVDMGYDIADYYSIADEYGTVADVEKLIQGCHERGMKLLMDLVVNHTSDQNEWFKQSRSSKDNKYRNWYVWKPARYDEQGNRHPPNNWVSHFQGSAWEWDEHTGEYYLHLYATEQPDLNWEHPPVRKAVHDIMRFWLDKGADGFRMDVINFISKDQRFPDAPVKDPRTPWQWGDKYYANGPRLHEYLQDLGKILKEYDAFSVGEMPFVRDTEEVLRAVRYDRNEINMIFNFEHVDIDHGTYDKFEPGSWKLTDLKAFFETWQKFMYNNDGWNALYWENHDQPRSIDRYAQAKEEFRTEAGKMLATVLALQSGTPFVYQGQEIGMRNVPVEWDMNEYKDIDCLNHWHRLLKHRPDDIEAQKSARQEYQKKSRDNGRTPVQWSSAPNGGFTGPNAKPWMSVSPDYVRFNAEAQVNDPNSIYHYWAAVLGLRKKYLDIFVYGDYDLVDKDSQEIFAYARQYENKKALVLTNWTEKTLEWDATTNGVKGVKDVLLNSYESAEAAKGRFSGQKWSLRPYEAVVLLVEA
Turning to B2, in the data set “purified protein [1]”, the Km was 7.8 mM and the turnover number (kcat) was found to be 19.8 s⁻¹. For the same molecule, in “purified protein [2]”, the Michaelis-Menten constant (Km) is on record as 32.8 mM and the catalytic constant (kcat) is 5.0 s⁻¹.
